Columns and labels:
[1] = molecular target: SARS-CoV-2 spike protein, B1.1.7 (alpha variant), borne on lentiviral pseudovirus (SARS-CoV-2, B1.1.7); assay: cell-based or functional assay
[2] = molecular target: SARS-CoV-2 spike protein, B1.351 (beta variant), borne on lentiviral pseudovirus (SARS-CoV-2, B1.351); assay: cell-based or functional assay
[3] = molecular target: T1, SARS-CoV-2 spike protein on live virus, strain USA-WA1/2020 (SARS-CoV-2, WA01/2020 strain, UniProt P0DTC2 14-1273); assay: cell-based or functional assay
[4] = molecular target: SARS-CoV-2 spike protein on live virus, B1.351 (beta variant) (SARS-CoV-2, B1.351); assay: cell-based or functional assay
[5] = molecular target: T1, SARS-CoV-2 spike protein on live virus, …; assay: cell-based or functional assay; remark: listed apart in the source
[6] = molecular target: T2, Receptor-binding domain (RBD) of the SARS-CoV-2 spike protein, WA01/2020 strain (SARS-CoV-2, WA01/2020 strain, UniProt P0DTC2 319-541); assay: dose-response ELISA on coated antigen
[7] = molecular target: T2, Receptor-binding domain (RBD) of the …; assay: ELISA, antibody blocks RBD binding to human ACE2
[8] = molecular target: T2, Receptor-binding domain (RBD) of the …; assay: SPR (Biacore), footnote to the Kd of < 4.7* pM
[9] = molecular target: T2, Receptor-binding domain (RBD) of the …; assay: SPR (Biacore 8K), antigen immobilized, antibody injected
[10] = molecular target: T2, Receptor-binding domain (RBD) of the …; assay: ELISA, antibody at 0.1 ug/mL
[11] = molecular target: T2, Receptor-binding domain (RBD) of the …; assay: dose-response ELISA on WT RBD

Row | Binder | Pseudo Neut, B1.1.7 IC50 (pM) [1] [pM] | Pseudo Neut, B1.351 IC50 (pM) [2] [pM] | Live Neut, WA1/2020 IC50 (pM) [3] [pM] | Live Neut, B1.351 IC50 (pM) [4] [pM] | IC50, live virus micro-neutralization WA1/2020 [5] [nM] | EC50 [6] [nM] | IC50 [7] [nM] | koff [8] [s⁻¹] | Kd [9] [nM] | binding result [10] | EC50 (read off the curve) [11] [µg/mL]
1 | antibody 1589 (antibody, V domains shown) VH: EVQLVESGGGLIQVGGSLRLSCAASGLTVTSNYMNWVRQGPGKGLEWVSLIYSGGTTYYADSVKGRFTISRDDSKNTLYLQMNSLRAEDTAVYYCARPIVGARSGMDVWGQGTAVTVSS VL: DIQMTQSPSSLSASVGDRVTITCQASQDINKYLNWYQQKPGKAPKLLIYDASNLETGVPSRFSGSGSGTDFTFTISSLQPEDLATYYCHQFDNLPGTFGGGTKVEIK | 133 | 137 | 43 | 167 | 0.0667 | 0.036 | 0.52 | < 1e-06 | < 0.0047 | – | –
2 | antibody 2793 (antibody, V domains shown) VH: QVQLVQSGAEVKKPGASVKVSCKVSGFTLPELSIHWVRQAPGKGLEWMGGFDPEDAKTIYAQKFQGRVTMTEDTSTDIAYMELNSLRSDDTAVYYCATGSPFGVVGNWLDPWGQGTLVTVSS VL: QSALTQPASVSGSPGQSITISCTGTSSDVGDFSYVSWYQQHPGKAPKLMIYEVTKRPSGVSNRFSGSKSGNTASLTISGLQTEDEADYYCTSYTSSRLVLFGGGTKLTVL | – | – | 77 | – | – | – | – | – | – | no binding (tested: 0.1 ug/mL) | –
3 | antibody 2854 (antibody, V domains shown) VH: QVQLVQSGAEVKKPGSSVKVSCKASGGTFSSYAISWVRQAPGQGLEWMGGIIPIFHTANYAQKFQGRVTITADESTSTTYVELSSLRSEDTAMYYCATLPITIFGEEYSFDNWGQGTLVTVSS VL: DVVMTQSPLSLPVTLGQPASISCRSSQSLVHSDGNTYLSWFQQRPGQSPRRLIYKVSDRDSGVPDRFSGSGSGTDFTLKISRVEAEDVGIYYCMQGTHWPPLTFGGGTKVEIK | – | – | 164 | – | – | – | – | – | – | no binding (tested: 0.1 ug/mL) | –
4 | antibody 2729 (antibody, V domains shown) VH: QVTLKESGPVLVKPTETLTLTCTVSGFSLSNARMGVSWIRQPPGKALEWLAHIFSNDEKSYSTYLKSRLTISKDSSKSQVVLTMTIMDPVDTATYYCARTAGRYSSRWGHYYYYMDVWGKGTTVTVSS VL: NFMLTQPHSVSESPGKTVTISCTGSNGSIASNFMQWYQQRPGSAPTIVIYEDNQRPSGVPDRFSGSIDGSSNSASLTISGLKTEDEADYYCQSYDSSDSDLGVFGGGTKLTVL | 93 | 793 | 111 | – | 0.272 | 0.037 | ~0.66 | – | 0.015 | – | ~0.01
5 | antibody 2788 (antibody, V domains shown) VH: QVQLVQSGAEVKKPGASVKVSCKVSGYTLIELSMHWVRQAPGKGLEWMGGFDPEGAETIYAQKFQGRVTMTEDTSTDTAYMELSSLRSDDTAVYYCATGPAVFAANWFDPWGQGTLVTVSS VL: QSALTQPPSASGSPGQSVTISCTGTSSDIGNYNNVSWYQQHPGKAPKLMIYDVIKRPSGVPDRFSGSKSGNTASLTVSGLQAEDEADYYCSSYAGKSYVFGTGTKVTVL | – | – | 117 | – | – | – | – | – | – | no binding (tested: 0.1 ug/mL) | –
6 | antibody 2866 (antibody, V domains shown) VH: QVQLVQSGAEVKKPGSSVKVSCKASGGTFSSYSISWVRQAPGQGLEWMGGLAPIFHTPNYAQKFQGRVTITADESTSTAYMELSSLRSEDTAVYYCARVAGAGWGVYGAFDYWGQGTLVTVSS VL: not shown | – | – | 649 | – | – | – | – | – | – | no binding (tested: 0.1 ug/mL) | –
7 | antibody 2619 (antibody, V domains shown) VH: EVQLVESGGGLVQPGRSLRLSCAASGFTFDDYAMHWVRQAPGKGLEWVSGISWNSGSIGYADSVKGRFTLSRDNAKNSLFLQMDSLRAEDTALYYCAKDVSYRSGSYYRFWGGSGSWGQGTLVTVSS VL: DIQMTQSPSSLSASVGDRVTITCRASLSIRSYLNWYQQKPGKPPKLLIYAASSLQSGVPSRFSGSGSGTDFTLTISSLQPEDFATYYCQQSYSTPLTFGGGTKVEIK | ~7 | – | 118 | – | – | 0.037 | 0.479 | – | 0.105 | – | ~0.02
8 | antibody 2024 (antibody, V domains shown) VH: QVQLVQSGAEVKKPGASVKVSCKVSGYTLIELSMHWVRQAPGKGLEWMGGFDPEEGETIYAQKFQGRVTMTEDTSTDTAYMELSSLRSEDTAVYYCTTSPPVGATGAWFDPWGQGTLVTVSA VL: SYVLTQPPSVSVAPGKTARITCGGNNIGSKSVHWYQQKPGQAPVLVVYDDSDRPSGIPERFSGSNSGNTATLTISGLQAEDEADYYCSSYTSSSTVVFGGGTKLTVL | – | – | 95 | – | – | – | – | – | – | no binding (tested: 0.1 ug/mL) | –
9 | antibody 1238 (antibody, V domains shown) VH: QVQLVQSGSELKKPGASVKVSCKASGYTFTNYGMNWVRQAPGQGLEWMGWINTNTGNPTNAQGFTGRFVFSLDTSVSTAYLQINSLKGEDTAVYYCARVADTGEMDVWGQGTTVTVSS VL: SYELTQPPSVSVSPGQTARITCSGDALPKQYAYWYQQKPGQAPVLVIYKDSERPSGIPERFSGSSSGTTVTLTISGVQAEDEADYYCQSADSSGSYNWVFGGGTKLTIL | – | – | 400 | – | – | – | – | – | – | no binding (tested: 0.1 ug/mL) | –
10 | antibody 2019 (antibody, V domains shown) VH: QVQLVESGGGVVQPGGSLSLSCAASGLSFSSYGMHWVRQAPGKGLEWVAFIRYDVSNKYYADSVKGRFTISRDNSKNTLYLQMNSLRVEDTAVYYCATWAPLDDGMDVWGQGTTVTVSS VL: SYELTQPPSVSVSPGQTARITCSGDALPKQYAYWYQQKPGQAPVLVIYKDTERPSGIPERFSGSSSGTTVTLTISGVQAEDEADYYCQSGDSSGTFYVVFGGGTKLTVL | – | – | 107 | – | – | – | – | – | – | no binding (tested: 0.1 ug/mL) | –
11 | antibody 3995 (antibody, V domains shown) VH: EVQLVQSGAEVKKPGSSVKVSCKASGGTFSMHTIRWVRQAPGQGLEWMGRIIPMLGIVNYAQKFQGRVTISADKSTSTAYMELSSLTSEDTAMYYCAKGSHDVFDIWGQGTMVTVSS VL: not shown | 667 | 2830 | 51 | 135 | 0.041 | 0.021 | 0.692 | – | 0.057 | – | –

— patent US20230382979A1 (ADAPTIVE BIOTECHNOLOGIES, published 2023)
